Patent US7794964B2, “Biochip for the detection of phosphorylation and the detection method using the same” (Korea Atomic Energy Research Institute, priority 2008, dated 2010)

Experiments:
cdc2 protein kinase = cdc2 protein kinase (Homo sapiens, UniProt P06493); assay: Phosphorylation of cdc2 protein kinase substrate on biochip using [γ-32P]ATP; assay type: biochemical; settings: 1.0 mg/ml substrate on aldehyde treated slide glass; 10 unit/ml cdc2 protein kinase; 0.1 μCi/μl [γ-32P]ATP; BSA negative control
Chain of cdc2 protein kinase (P06493 whole entry, the tested form may be a part): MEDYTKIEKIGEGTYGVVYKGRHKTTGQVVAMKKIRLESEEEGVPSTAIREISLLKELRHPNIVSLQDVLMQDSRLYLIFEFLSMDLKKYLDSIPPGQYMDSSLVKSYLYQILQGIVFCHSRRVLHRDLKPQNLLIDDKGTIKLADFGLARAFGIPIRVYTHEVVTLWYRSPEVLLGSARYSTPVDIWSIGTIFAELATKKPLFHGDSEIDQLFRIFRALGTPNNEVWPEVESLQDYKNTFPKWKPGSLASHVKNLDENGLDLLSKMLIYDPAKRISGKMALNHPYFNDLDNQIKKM
Chain of cdc2 protein kinase (P14635 whole entry partner, the tested form may be a part): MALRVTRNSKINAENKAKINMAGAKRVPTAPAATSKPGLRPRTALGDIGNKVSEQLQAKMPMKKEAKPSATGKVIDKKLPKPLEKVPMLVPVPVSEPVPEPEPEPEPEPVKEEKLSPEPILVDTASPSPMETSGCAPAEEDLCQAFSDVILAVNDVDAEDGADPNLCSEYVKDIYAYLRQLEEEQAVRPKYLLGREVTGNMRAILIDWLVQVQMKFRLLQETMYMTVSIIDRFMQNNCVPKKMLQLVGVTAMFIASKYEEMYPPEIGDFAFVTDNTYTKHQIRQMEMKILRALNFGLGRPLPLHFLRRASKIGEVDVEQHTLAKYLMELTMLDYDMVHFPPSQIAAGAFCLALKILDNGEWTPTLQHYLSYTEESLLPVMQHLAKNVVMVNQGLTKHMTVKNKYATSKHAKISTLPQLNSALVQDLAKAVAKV
Method: (§1) To fix substrate on the aldehyde-treated slide glass (Nuricell Inc., Korea), 0.1 mg/ml of the Mep45-kinase substrate fusion protein or 1.25 μg/ml of peptide substrate (Promega, Madison, Wis.) was integrated. Particularly, the recombinant Mep45-kinase substrate fusion protein solution (10% glycerol, PBS, pH 7.5) was prepared at the concentration of 0.1 mg/ml, and this substrate solution was integrated on the aldehyde-treated slide glass at the spot intervals of 300 μm by using microarray device (Genetix Ltd, UK). The size of the spot was regulated to be 300 μm. The integrated biochip was reacted in a humid chamber at room temperature for one hour, leading to fixation.
(§2) The biochip constructed in Example 2 was washed three times with PBS (200 mM NaCl, 3 mM KCl, 2 mM KH2PO4, 1 mM Na2HPO4, pH 7.5), followed by reaction of the kinase and substrate on the chip. Particularly, the chip was washed with kinase buffer (40 mM Tris-HCl, 20 mM MgCl2, 0.1 mg/ml BSA, pH 7.5) once. […]
1.0 mg/ml of PKTPKKAKKL (SEQ. ID. NO: 2) and Mep45 fusion substrate were integrated on the aldehyde treated slide glass, followed by phosphorylation using 10 unit/ml of cdc2 protein kinase and 0.1 μCi/μl of [γ-^32P]ATP. Phosphorylation was measured by using X-ray film or X-ray fluorescence spectrometer. […]

PKC (Protein Kinase C) = assay: Phosphorylation of PKC substrate on biochip using [γ-32P]ATP; assay type: biochemical; settings: 0.3 mg/ml substrate on aldehyde treated slide glass; 10 unit/ml PKC; 0.1 μCi/μl [γ-32P]ATP; BSA negative control
Method: as §1, §2
0.3 mg/ml of AAKIQASFRGHMARKK (SEQ. ID. NO: 1) and Mep45 fusion substrate were integrated on the aldehyde treated slide glass, followed by phosphorylation using 10 unit/ml of PKC and 0.1 μCi/μl of [γ-^32P]ATP. Phosphorylation was measured by using X-ray film or X-ray fluorescence spectrometer. […]

Sequence	phosphorylation signal on the spot (X-ray film or X-ray fluorescence spectrometer) (cdc2 protein kinase)	phosphorylation signal on the spot (X-ray film or X-ray fluorescence spectrometer) (PKC (Protein Kinase C))
PKTPKKAKKL (cdc2 Protein Kinase substrate) [peptide substrate for cdc2-PK (cdc2 Protein Kinase)]	clear signal was detected	–
AAKIQASFRGHMARKK (Protein Kinase C substrate) [peptide substrate for PKC (Protein Kinase C)]	–	clear signal was detected
